The values that follow come from the DeepSol protein solubility set.

The nature of the data set: soluble on expression in E. coli; label from the status in PepcDB or PDB records.
For the sequence “MTKFVAKKAILLLSLLLLGTAESKPLDAEQQHIDDQHVRKERQLKMAGSADPDVKMVANVTPATGSQPMSMTMGVPMNQMALSSVGGQLVRYPNYPGLIYPGLAPAPGLNGVPGLQTNIANNYPSYPDPNLTGSVPGFNPFGSFGYPGVAPMYGNSLMYPNPQLPNGFVPNPAVDNFQSLNNIVNMANVQGLAGGSSGIYPAPQGFGGVSPGLYPAPQGFGGANPGLYPAPQVNMQGLYPPSGGFLERMNMQGYAPGFLEHHHHHH”, the “soluble on expression in E. coli” value is “not soluble”.

Consider “PRLWEGQDVLARWTDGLLYLGTIKKVDSAREVCLVQFEDDSQFLVLWKDISPAAL”, for which the “soluble on expression in E. coli” value is “soluble”.

With “MKKRIIPIFVPHKGCPHDCIFCNQKKITGVSTDVTSEDARNIIEECLETIDKDADVEIAFFGGSFTAIDIDIQKSLLSVAKEYVEKGLVKDIRMSTRPDCIDEDILSMLKEYKTSIIELGVQSLDEKVLLDSIRGHQSEIVYKSSKMIKNSGIKLGLQMMIGLPADTEEKCIFTAKKFVELKPDCVRVYPTLVVKDTGLEKLMEQNKYNPFTLEESVNIVKKVLVLFYVNNINVIRVGLQATDDIQIGKAVLAGPYHPAFRELVEADMIKDYLEFVILQNKNIKQMLVKSNKKNISKIIGNKKTNVKYMEEKFGVLLKTQESDLDINQLEIVLDGKSLISANMRDIHRKLYDIYDL”, the “soluble on expression in E. coli” value was “not soluble”.

On to “MRGLLILLLSLICLATPVLAQPVAAEQPLPDIRQRGFVYCVSGILNTFNPQMASSGLTVDTLAAQLYDRLLDVDPYTYRLIPELAESWQVLDNGATYRFHLRKDVPFQTTDWFTPTRMMNADDVVFSFQRVFDSKHPYHKVNGGEYPYFDSLQFASAVKSVKKLDDYTVEFKLKAPDASFLWHLATHYAPVLSSEYADVLTQKGKEEQIDREPVGTGPFLLDEYRSGQYIRLFRNSHYWKGVPRMPQVVIDLGVGGTGRLSKLLTGECDVLAYPAASQLSILRDDPPRLRLTLRPGMNVAYLAFNTRKPPLSDQRVRQAIALSINNQRLMQSIYYGTAETAASILPRASWAYDNQAQVTEYNPEKAKEILKDLGITQLQLNLWVPTASQSYNPSPLKTAELIQADLAQVGISVTIVPVEGRFQEARLMEMNHDLTLSGWSTDSNDPDSFFRPLLSCAAIRSQTNYAHWCDPAFDELLQKALRSQQLSERIEYYQQAQRILEQQLPLLPLASSLRLQAYRYDIKGLVLSPFGNSSFAGVYRESDEGKTP”, for which the “soluble on expression in E. coli” value was “not soluble”.

“MSLGDPGLKFQEYILQHIEPSKSYEIAICQSIGRRGKMEDTVVVDCSSIEGTDIIGVFDGHNGKDAAYLCTEQYIKTFKENEGTFEAKLIKTHKQLHDKSCETSKSGTTSTVAFIDKDTIRIAYCGDSPAYIYKNNKIKKITKEHKATNSAEVERIEMNGGVVFGMFGVKRVNGQIMVTRSIGDPSLHPPLTTEPDFIKLEKKGIELLFLMSDGITDGVTEKELEDIISKSGGMFNIAFDTLKLAYVNESSDNLTFIVIKINEGHHHHHH”: the “soluble on expression in E. coli” value is “soluble”.

Regarding “MNNELPDDIELLKAMLRKQQSRLRQYACQVAGYEQEIERLKAQLDRLRRMLFGQSSEKKRHKLENQIRQAEKRLSELENRLNTARNLLEDASSVTDSPDTSPPSENPIASKPESPGRKSSRKPLPAELPRETHRLLPAETSCPACGGVLKEMGETISEQLDIINTAFKVIETIRPKLACSRCDVIGTTSS”, the “soluble on expression in E. coli” value is reported as “not soluble”.

“MLDIVLYEPEIPQNTGNIIRLCANTGFRLHLIEPLGFTWDDKRLRRSGLDYHEFAEIKRHKTFEAFLESEKPKRLFALTTKGCPAHSQVKFKLGDYLMFGPETRGIPMSILNEMPMEQKIRIPMTANSRSMNLSNSVAVTVYEAWRQLGYKGAVNLPEVKLEHHHHHH”: the “soluble on expression in E. coli” value is on record as “soluble”.

For “MKRDRSDYEESMKHIDIVESLMMLSRSFVVKQIDVKQSTGSKTNHNNHFECKTCNRKFDSFQALGGHRASHKKPKLIVDQEQVKHRNKENDMHKCTICDQMFGTGQALGGHMRKHRTSMITEQSIVPSVVYSRPVFNRCSSSKEILDLNLTPLENDLVLIFGKNLVPQIDLKFVN”, the “soluble on expression in E. coli” value is recorded as “soluble”.

Consider “MALPKPSDGTLPAEVQGRGQRRRLVWTPSQSKALQACFERNPYPGITTRERLAQAIGIPEPRVQILFQNERSCQLRQHWH”, for which the “soluble on expression in E. coli” value is listed as “soluble”.

For the sequence “MADYLLEIGLEEIPAHLVTESENQLIERIKNFFSDNLLDYKKIQTFSTPRRLAVLVHDLSNYSQSKDEELRGPSLKVAKDESGNWSRAAEGFARSQGTSPAEFDERDGYVYLNKHIEGVSAEEILKKIGIEVVEKMKFSTYMKWADFKLEYVRPIRWLVSLLDSKIVPFQILDVKADRFTRGHRFLSGGKISISEAGDYEETLNNAYVIVDAKVRKNSIRNQIRKIADTNDWNLHVDPDLLEEVNNIVEYPTAFAGVFDDKYLNLPEIVLTTSMRDNQRFFYVTNKQGKILPHFISVRNGDSNQIENVVKGNEKVLVARLEDAEFFFEEDQKHNIDFFMKKAERLVFHEKIGTMTEHMKRVEKIAALLANQLAFNDQEKKDLKRAANICKFDLTTAMVGEFAELQGTMAGIYAKIFGENQTVCQALSEQYLPTSSEGDLPKSKVGAMLALADKLDTLFSFFAAGIIPSGSNDPYGLRRAALGIVRIIGQQKWNFSVSKLLHSLKTAVDKHEDGFLIDFADTKEISRKVIEFFLDRIRQQSSDIRYDLLDASTGKVNEGIINY”, the “soluble on expression in E. coli” value is on record as “not soluble”.

Turning to “MGSDKIHHHHHHMLRSLPVLMYHYISRVHDSIAVHPDQFEDHCRGMAAEGWRGVSLAEAEAFLAEGTPLPERSVLITFDDGFLDNYVHALPILEKYGHCGTVFATAGKLETAAGLRPTLADVWSGRIPAEGLPRVDAPFVKHRLGFDERHDLFLNWDEARHAESTGTLAVAAHSMWHRSVFTSASYEGFYAPQRRGRTFDRVEGDVPWGLPRFKVGPALRERAFLPSAELLHAIRETVPQDKDGAYAFFSDTAATERLMHTVEAFGADGLGRFETDAERTERMYREMRDCKQLLENELGHPVTTFCWPWGAFCDEALAIGRELGFRVFLTTLMGSNPPSAPLAVHRFKAKAKPWSWLRLRLHVYSRPLLANLYARMRL”, the “soluble on expression in E. coli” value was “not soluble”.

“MLSSPLRVAVVCVSNINRSMEAHSILRRKGLSVRSFGTESHVRLPGRRPNHPVVYDFATTYKEMYNDLLRKDRECYTHNGILHILGRNERIKPGPERFQECTEFFDVIFTCEERVYDTVVEDLCSREQQTFQPVHVINMDIKDTLEGAILGAFLICEICQCLQQSDDMEDSLEELLLQMEEKAGKSFLHTVCFYLEHHHHHH”: the “soluble on expression in E. coli” value was “soluble”.

On to “MNIQNIRTLLDTVAVPNTARTLGGEKAVRSVEQRSDGIHIALHFGFPVAHIASETADRIQEILMPETGDTHIHLSMDTEIGTHKVQPGVTTIKGVKNIIAVASGKGGVGKSTTTANLAAAMARMGARVGVLDADLYGPSQPTMLGVDDRKPDQKNQKLIPVESSDGIQVMSIGFLVDTDQAVVWRGPMVSQALQQLMFQSEWDEVDYLFIDLPPGTGDIQLTLSQRIPVTGSVIVTTPQDIALIDARKAVDMFRKVNIPILGVLENMSVHICTNCGHSEALFGTDGGKDFAARLNVPLLGQLPLSLPVREAMDGGTPAQLFDEHPAIARIYTDAAFQIALSIADKGKDFSSRFPKIVVE”, for which the “soluble on expression in E. coli” value was “not soluble”.

For “MSLSVYEKVNALDKRAIEELFLSEDILMENAAMALERAVLQNASLGAKVIILCGSGDNGGDGYALARRLVGRFRVLVFEMKLTKSPMCQLQKERAKKAGVVIKTYEENALNQNLECDVLIDCVIGSHFKGKLEPFLNFESLSQKARFKIACDIPSGIDSKGRVDKRAFKADLTISMGAIKSCLLSDRAKDYVGELKVGHLGVFNPIYEIPTDTFLLEKSDLKLPLRDKKNAHKGDYGHAHVLLGKHSGAGLLSALSALSFGSGVVSVQALECEITSNNKPLELVFCENFPNLLSAFALGMGLENIPKDFNRWLELAPCVLDAGVFYHKEILQALEKEAVLTPHPKEFLSLLNLVGINISMLELLDNKLEIARDFSQKYPKVVLLLKGANTLIAHQGQVFINILGSVALAKAGSGDVLAGLILSLLSQNYTPLDAAINASLAHALASLEFKNNYALTPLDLIEKIKQLEGHHHHHH”, the “soluble on expression in E. coli” value is listed as “soluble”.

On to “MSLRYLRFLTAGESHGKGLTAILEGIPANLPLSEEEINHELRRRQRGYGRGGRMKIEKDTAEILSGVRFGKTLGSPIALFIRNRDWENWKEKMAIEGEPSPSVVPFTRPRPGHADLSGGIKYNQRDLRNILERASARETAARVAVGAVCKKFLSEFGIKIGSFVVSIGQKEVEELKDKSYFANPEKLLSYHEKAEDSELRIPFPEKDEEFKTYIDEVKEKGESLGGVFEVFALNVPPGLGSHIQWDRRIDGRIAQAMMSIQAIKGVEIGLGFEAARRFGSQVHDEIGWSEGKGYFRHSNNLGGTEGGITNGMPIVVRVAMKPIPTLKNPLRSVDIETKEEMKAGKERTDIVAVPAASVVGEAMLAIVLADALLEKLGGDFMEEVKKRFEDYVNHVKSF”, for which the “soluble on expression in E. coli” value is recorded as “soluble”.

With “MAHHHHHHMGVGFQSKKLQNFCHSGAGEMCALENCIPRWGSFPCNAPGLTPVYELSSFENVELPLIFQKSNIGDLLASTSDSVGQLNGFQARHSNTEGIKSQVSYTSVALSTTNRENLFGWVDCAALPLCSSSTAGASILLVTLLTRESRGKSCMCILDDLVCQLSNGPFNWGCGGDCHDLISISLPSEPRNHAACPIILPIAKLSRKEIWLREAAPKMDVETIIYEGDNQQHLVDDVANGTNAGSCAVMEAGCRPETALGPENVKYGDNESVTQCEVTVDITPSTEPSARCLHFSECTTPVSSNRSFMEPIPLSNMESKALRCRKFDGTSYEVLRRRAHSDALSLILKKYSEHLERVSQTSGRRGLDAHC”, the “soluble on expression in E. coli” value is reported as “soluble”.

With “MSLSIAKNIENDPSKGWVVQKFGGTSVGKFPIKIAVDVAKEYLSTKRVALVCSARSTDTKAEGTTTRLIRATEAALRPAVGSVHDLVRIIETDHVQAARDFIQDVGIQDELIDAFHADCVELEQYLNAIRVLSEVSPRTRDLVIGMGERLSCRFMAAVLKDQGIDSEFIDMSHIIDEQREWRNLDASFYAYLASQLASKVTAVGNKVPVVTGFFGMVPGGLLSQIGRGYTDFCAALLAVGLNADELQIWKEVDGIFTADPRKVPTARLLPLITPEEAAELTYYGSEVIHPFTMSQVVHARIPIRIKNVGNPRGKGTVIFPDTISRHGSATPPHPPKIMPDDISASLANKGATAVTIKDTIMVINIQSNRKISAHGFLASIFAILDKYKLAVDLITTSEVHVSMALYEESDDGNMHEAFVELRRLGTLDILHGLAILSLVGKHMRNTTGYAGRMFCKLAEAQINIEMISQGASEINISCVIDEKMAVKALNVIHKELLEPLALHEVPSQASMLVEKPWLYSAEGHHHHHH”, the “soluble on expression in E. coli” value is listed as “soluble”.

For “VNYRTPAEIMSVANELLTQINPDIAPAMAIRESGREVVNLPLDADLSAVMDSLREEDSQRTIAVISSRRHHESDFYLVDDIKGLEFDHVIVVDPAGIVEESPQGLQDLYVAVTRATQSLTILGE”, the “soluble on expression in E. coli” value is on record as “not soluble”.

Turning to “MNVLVIGRGGREHALAWKFAQSEKVEKVYVAPGNEGMRDVATPIDIDENDFDALVLFAKENHVELTFVGPEIPLMNGIVDRFKEEGLRVFGPNKAAAVIEGSKAFTKELMKKYNIPTAAYETFTDYEEAVQYIEKVGAPIVIKADGLAAGKGVTVAMTLEEALQAAKEMLQDVKFGEASKKVVIEEFLDGQEFSLMAFVNGTTVHPMVIAQDHKRAFDGDKGPNTGGMGAYSPVPQISESAVQEAIETVLYPTAKAMIQENRSFTGILYAGLILTNDGPKVIEFNARFGDPETEVVLPRLENDLVDVCNAVLDESELTLQWSDEAVIGVVLAAKGYPEAYKKGDIIKGLDALQDVIVFHAGTAMKRGDFVTNGGRVLFVACKANSLQEAKDKVYKEIGKIESDVLFYRSDIGYRAIGHEMTRS”, the “soluble on expression in E. coli” value is “not soluble”.

On to “TSKCTIIPGSGFRNDEGKYEIIADKCIEADYPQKDEVAAAAYMNKYVEEVILRAPEQWMWLHKRYKTMQDENEPKGIRYK”, for which the “soluble on expression in E. coli” value was “not soluble”.
